This note sets out measurements from publication PMC4083444 (Nature Communications, 2014).

This series deals with the molecule itself. Put plainly: crystal structure.

Changes are numbered by the printed parent chain. Names may count otherwise.

B1: TmCdsA S200C/S223C double-cysteine mutant (enzyme, Thermotoga maritima, UniProt Q9X1B7 1-270, looked up)
chain: MDDLKTRVITASVVAPFVVLCFVSYESLIGLVSAILILAGYELITLEMKERDARFFYVILLALYPVLYGLVFEEPTQPLSILFITGVVFSLITDKDPSQVFKTVAAFSIALIYVTFFLSFFLPIYRDFGAANALLVLTSTWVFDSFAYFTGLKFGRTRISPRYSPRKSLEGVIGGFLGVVIYTFLYRLVVNDLLSVNVICFRTFLPFAATVAIMDTFGDIFECALKRHYGVKDSGKTLPGHGGMLDRIDGLLFVAPVSYIVFKILEGVVR
modifications: mercury labels (CH3HgCl) bound to the endogenous and engineered Cys residues in the crystal
Consider B1, for which the binding result is “binds”.

B2: TmCdsA S200C/S258C double-cysteine mutant (enzyme, Thermotoga maritima, UniProt Q9X1B7 1-270, looked up)
chain: B1 chain with C223S, S258C
For B2, the binding result is “binds”.
